This passage reports Kd and response results from PMC8529501 (iScience, 2021).

T1 sequence (Q8IXJ6 2-389): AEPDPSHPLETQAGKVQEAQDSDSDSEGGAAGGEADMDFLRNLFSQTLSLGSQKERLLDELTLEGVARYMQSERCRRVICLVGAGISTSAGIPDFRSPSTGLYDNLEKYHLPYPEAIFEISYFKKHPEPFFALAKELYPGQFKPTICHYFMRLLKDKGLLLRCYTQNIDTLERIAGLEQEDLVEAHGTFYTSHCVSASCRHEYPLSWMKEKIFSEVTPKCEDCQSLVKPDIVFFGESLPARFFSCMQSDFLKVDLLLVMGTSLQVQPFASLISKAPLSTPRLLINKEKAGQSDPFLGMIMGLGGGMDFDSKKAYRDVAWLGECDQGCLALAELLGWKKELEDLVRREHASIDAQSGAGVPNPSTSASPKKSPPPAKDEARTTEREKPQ

One assay concerns the target T1, SIRT2 (Homo sapiens, UniProt Q8IXJ6).
T1 construct: GST-tagged SIRT2 expressed in E. coli BL21
Put plainly: ITC; also label-free MST (Kd […]) and native PAGE. Type of assay: binding.
Conditions: not given
As for `CO[C@H]1C[C@@H]2CC[C@@H](C)[C@@](O)(O2)C(=O)C(=O)N2CCCC[C@H]2C(=O)O[C@H]([C@H](C)C[C@@H]2CC[C@@H](O)[C@H](OC)C2)CC(=O)[C@H](C)/C=C(\C)[C@@H](O)[C@@H](OC)C(=O)[C@H](C)C[C@H](C)/C=C/C=C/C=C/1C` [Rapamycin], the Kd (as a rule, a measure of binding affinity in units of concentration) was found to be 9.5 nM.

A further assay has as its target mTOR (FRB)-N-Luciferase reporter. The assay is described as follows: split-luciferase complementation (dual element luciferase assay). To be noted: HEK293T cells, rapamycin treatment; parent: est. 13; read off a plot. Set-up: unit not given here.
For the molecule FKBP12-C-Luc (from UniProt P62942) K53Q, the response was 10. The same measure, in the same setting: then FKBP12-C-Luc (from UniProt P62942) K53R, with 16; and FKBP12-C-Luc (from UniProt P62942) K48Q, with 5. As for FKBP12-C-Luc (from UniProt P62942) K45R, the response is 13. The same measure, in the same setting: in the case of “FKBP12-C-Luc (from UniProt P62942) E108A” it was 5.5; in that of FKBP12-C-Luc (from UniProt P62942) K45Q, 1.9. For FKBP12-C-Luc (from UniProt P62942) K48R, the response amounted to 16.
